Test results reported in publication PMC10090080.

Legend:
[1] = biological target: portal protein pUL104 (human cytomegalovirus strain AD169); assay: cryo-EM structure
[2] = biological target: pUL93 (human cytomegalovirus strain AD169); assay: cryo-EM structure

portal protein pUL104 (natural protein)
stoichiometry N [1]: 12

pUL77 (natural protein)
stoichiometry N [2]: 2
